Key:
[1] = molecular target: histone H3 (unmodified) (Drosophila melanogaster, UniProt P02299)
[2] = molecular target: histone H3 (K4 trimethylated) (Drosophila melanogaster, UniProt P02299)

| Binder | Kd [1] | Kd [2] |
| --- | --- | --- |
| Caf1 (protein) MVDRSDNAAESFDDAVEERVINEEYKIWKKNTPFLYDLVMTHALEWPSLTAQWLPDVTKQDGKDYSVHRLILGTHTSDEQNHLLIASVQLPSEDAQFDGSHYDNEKGEFGGFGSVCGKIEIEIKINHEGEVNRARYMPQNACVIATKTPSSDVLVFDYTKHPSKPEPSGECQPDLRLRGHQKEGYGLSWNPNLNGYLLSASDDHTICLWDINATPKEHRVIDAKNIFTGHTAVVEDVAWHLLHESLFGSVADDQKLMIWDTRNNNTSKPSHTVDAHTAEVNCLSFNPYSEFILATGSADKTVALWDLRNLKLKLHSFESHKDEIFQVQWSPHNETILASSGTDRRLHVWDLSKIGEEQSTEDAEDGPPELLFIHGGHTAKISDFSWNPNEPWIICSVSEDNIMQVWQMAENVYNDEEPEIPASELETNTA | ~600 nM |  |
| Caf1 (protein, H3K4me3) MVDRSDNAAESFDDAVEERVINEEYKIWKKNTPFLYDLVMTHALEWPSLTAQWLPDVTKQDGKDYSVHRLILGTHTSDEQNHLLIASVQLPSEDAQFDGSHYDNEKGEFGGFGSVCGKIEIEIKINHEGEVNRARYMPQNACVIATKTPSSDVLVFDYTKHPSKPEPSGECQPDLRLRGHQKEGYGLSWNPNLNGYLLSASDDHTICLWDINATPKEHRVIDAKNIFTGHTAVVEDVAWHLLHESLFGSVADDQKLMIWDTRNNNTSKPSHTVDAHTAEVNCLSFNPYSEFILATGSADKTVALWDLRNLKLKLHSFESHKDEIFQVQWSPHNETILASSGTDRRLHVWDLSKIGEEQSTEDAEDGPPELLFIHGGHTAKISDFSWNPNEPWIICSVSEDNIMQVWQMAENVYNDEEPEIPASELETNTA |  | > 70000 nM |

Source: article PMC10148413 (2023)
